Measurements as given in patent US20150274836A1 (US Dept. of Health and Human Services, published 2015).

B1: full-length mouse mesothelin protein (other)
chain: DAEQKACPPGKEPYKVDEDLIFYQNWELEACVDGTMLARQMDLVNEIPFTYEQLSIFKHKLDKTYPQGYPESLIQQLGHFFRYVSPEDIHQWNVTSPDTVKTLLKVSKGQKMNAQAIALVACYLRGGGQLDEDMVKALGDIPLSYLCDFSPQDLHSVPSSVMWLVGPQDLDKCSQRHLGLLYQKACSAFQNVSGLEYFEKIKTFLGGASVKDLRALSQHNVSMDIATFKRLQVDSLVGLSVAEVQKLLGPNIVDLKTEEDKSPVRDWLFRQHQKDLDRLGLGLQGGIPNGYLVLDFNVREAFS
notes: also called mMSLN; murine mesothelin
B2: full-length human mesothelin protein (other)
chain: EVEKTACPSGKKAPEIDESLIFYKKWELEACVDAALLATQMDRVNAIPFTYEQLDVLKHKLDELYPQGYPESVIQHLGYLFLKMSPEDIRKWNVTSLETLKALLEVNKGHEMSPQVATLIDRFVKGRGQLDKDTLDTLTAFYPGYLCSLSPEELSSVPPSSIWAVRPQDLDTCDPRQLDVLYPKARLAFQNMNGSEYFVKIQSFLGGAPTEDLKALSQQNVSMDLATFMKLRTDAVLPLTVAEVQKLLGPHVEGLKAEERHRPVRDWILRQRQDDLDTLGLGLQGGIPNGYLVLDLSMQEALS
notes: also called MSLN; full-length mesothelin

Key:
[1] = biological target: T1, SD1-human Fc fusion protein (human, UniProt P01857 104-330 = IgG part); test: direct ELISA, coated antigen
T1 construct: domain: CH2 and CH3 in the constant region of human IgG heavy chain gamma 1; also called SD1-hFc

[2] = biological target: T1, SD1-human Fc fusion protein; test: ELISA on coated human mesothelin protein (FIG. 3C)
[3] = biological target: T1, SD1-human Fc fusion protein; test: ELISA on coated human mesothelin protein, equilibrium constant by Prism / Scatchard

T1 sequence (P01857 other isoform, or with tags, fused parts or gaps limits assumed): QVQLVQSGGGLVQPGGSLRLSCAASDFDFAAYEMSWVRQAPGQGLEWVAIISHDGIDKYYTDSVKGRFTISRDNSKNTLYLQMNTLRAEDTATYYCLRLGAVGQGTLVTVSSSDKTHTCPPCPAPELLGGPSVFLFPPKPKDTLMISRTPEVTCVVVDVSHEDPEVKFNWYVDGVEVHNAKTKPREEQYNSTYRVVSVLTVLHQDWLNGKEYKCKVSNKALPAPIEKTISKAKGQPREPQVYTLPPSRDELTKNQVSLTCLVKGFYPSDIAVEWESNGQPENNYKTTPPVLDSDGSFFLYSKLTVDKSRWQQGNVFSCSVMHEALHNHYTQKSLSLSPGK

Row | Binder | binding result [1] | Kd [2] | Kd [3]
1 | B1 | no binding | – | –
2 | B2 | – | 13.6 nM | 13.6 nM
